Measured values reported in patent US20220315554A1, “COMPOUNDS COMPRISING A […] LIGAND AND USE THEREOF” (priority 2019, published 2022).

How the values were obtained:
[1] = biological target: T1, A20 (Homo sapiens (Human)) (UniProt P21580)
T1 sequence: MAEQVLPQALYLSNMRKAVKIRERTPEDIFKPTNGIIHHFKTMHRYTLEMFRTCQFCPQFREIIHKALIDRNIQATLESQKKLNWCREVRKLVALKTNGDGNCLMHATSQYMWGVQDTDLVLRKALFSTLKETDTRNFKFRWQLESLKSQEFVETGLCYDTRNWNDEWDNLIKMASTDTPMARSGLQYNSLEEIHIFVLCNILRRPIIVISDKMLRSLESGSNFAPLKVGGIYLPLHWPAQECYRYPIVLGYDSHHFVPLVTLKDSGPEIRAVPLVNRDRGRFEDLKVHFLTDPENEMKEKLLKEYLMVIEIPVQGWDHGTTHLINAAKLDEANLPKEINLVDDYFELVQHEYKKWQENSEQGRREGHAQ

[2] = biological target: Activated Protein C (Homo sapiens (Human)) (UniProt P04070)
[3] = biological target: Ataxin3 (Homo sapiens (Human)) (UniProt P54252)
[4] = biological target: Beta secretase (Homo sapiens (Human)) (UniProt P56817)
[5] = biological target: T2, Caspase-3 (Homo sapiens (Human)) (UniProt P42574)
T2 sequence: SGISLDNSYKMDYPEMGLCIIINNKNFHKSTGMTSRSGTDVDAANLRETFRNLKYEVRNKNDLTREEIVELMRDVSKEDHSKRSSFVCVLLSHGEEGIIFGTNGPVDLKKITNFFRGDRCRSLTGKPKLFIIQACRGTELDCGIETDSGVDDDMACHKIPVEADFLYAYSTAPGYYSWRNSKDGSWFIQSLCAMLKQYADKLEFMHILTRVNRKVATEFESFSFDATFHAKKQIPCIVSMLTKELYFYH

[6] = biological target: T3, Caspase-6 (Homo sapiens (Human)) (UniProt P55212)
T3 sequence: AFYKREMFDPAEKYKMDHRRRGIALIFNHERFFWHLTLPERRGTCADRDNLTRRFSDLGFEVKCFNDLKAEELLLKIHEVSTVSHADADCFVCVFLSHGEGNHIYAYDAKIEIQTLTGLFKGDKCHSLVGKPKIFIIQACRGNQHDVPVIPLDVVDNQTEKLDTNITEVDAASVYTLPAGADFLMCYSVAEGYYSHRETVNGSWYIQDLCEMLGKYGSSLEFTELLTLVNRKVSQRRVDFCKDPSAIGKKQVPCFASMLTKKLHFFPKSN

[7] = biological target: Caspase-8 (Homo sapiens (Human)) (UniProt Q14790)
[8] = biological target: T4, Cathepsin F (Homo sapiens (Human)) (UniProt Q9UBX1)
T4 sequence: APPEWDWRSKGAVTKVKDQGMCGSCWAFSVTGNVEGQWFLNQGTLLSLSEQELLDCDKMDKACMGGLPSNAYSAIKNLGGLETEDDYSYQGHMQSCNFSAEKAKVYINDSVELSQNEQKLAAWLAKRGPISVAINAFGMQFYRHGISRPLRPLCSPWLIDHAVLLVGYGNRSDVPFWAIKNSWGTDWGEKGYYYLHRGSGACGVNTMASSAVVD

[9] = biological target: Cathepsin L (Homo sapiens (Human)) (UniProt P07711)
[10] = biological target: Cathepsin S (Homo sapiens (Human)) (UniProt P25774)
[11] = biological target: DPP7 (Homo sapiens (Human)) (UniProt Q9UHL4)
[12] = biological target: DPP9 (Homo sapiens (Human)) (UniProt Q86TI2)
[13] = biological target: T5, Deubiquitinase OTUD6B (Homo sapiens (Human)) (UniProt Q8N6M0)
T5 sequence: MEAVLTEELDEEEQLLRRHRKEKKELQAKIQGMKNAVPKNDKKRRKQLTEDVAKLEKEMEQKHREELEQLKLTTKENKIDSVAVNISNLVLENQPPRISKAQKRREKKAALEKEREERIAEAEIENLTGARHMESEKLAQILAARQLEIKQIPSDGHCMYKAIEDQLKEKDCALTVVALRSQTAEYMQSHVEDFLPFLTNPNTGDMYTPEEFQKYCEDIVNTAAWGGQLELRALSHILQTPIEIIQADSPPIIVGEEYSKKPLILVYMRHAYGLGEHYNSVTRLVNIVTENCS

[14] = biological target: Matrix metalloprotease 9 (mutant Q279R) (Homo sapiens (Human)) (UniProt P14780)
[15] = biological target: Ubiquitin carboxy-terminal hydrolase 14 (Homo sapiens (Human)) (UniProt P54578)
[16] = biological target: T6, Ubiquitin carboxy-terminal hydrolase 2 (Homo sapiens (Human)) (UniProt O75604)
T6 sequence: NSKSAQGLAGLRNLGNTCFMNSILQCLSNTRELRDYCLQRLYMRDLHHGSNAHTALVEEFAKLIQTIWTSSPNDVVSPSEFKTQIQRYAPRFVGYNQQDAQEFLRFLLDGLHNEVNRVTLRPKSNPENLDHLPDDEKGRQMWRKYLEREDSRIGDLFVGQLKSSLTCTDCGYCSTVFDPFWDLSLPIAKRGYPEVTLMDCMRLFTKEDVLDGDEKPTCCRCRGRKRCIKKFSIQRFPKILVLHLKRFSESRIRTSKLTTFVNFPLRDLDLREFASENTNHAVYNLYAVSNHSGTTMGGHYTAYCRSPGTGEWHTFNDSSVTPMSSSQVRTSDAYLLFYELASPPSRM

[17] = biological target: Ubiquitin carboxy-terminal hydrolase 8 (Homo sapiens (Human)) (UniProt P40818)
[18] = biological target: Ubiquitin carboxy-terminal hydrolase L1 (Homo sapiens (Human)) (UniProt P09936)
[19] = biological target: T7, Ubiquitin carboxy-terminal hydrolase L3 (Homo sapiens (Human)) (UniProt P15374)
T7 sequence: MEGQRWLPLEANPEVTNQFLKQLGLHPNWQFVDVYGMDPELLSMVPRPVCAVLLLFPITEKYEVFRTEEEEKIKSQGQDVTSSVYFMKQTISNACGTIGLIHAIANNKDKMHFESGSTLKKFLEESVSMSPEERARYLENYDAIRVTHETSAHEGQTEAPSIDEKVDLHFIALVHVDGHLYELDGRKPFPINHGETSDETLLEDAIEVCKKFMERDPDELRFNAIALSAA

Activated Protein C (Homo sapiens (Human)), sequence (P04070 43-461): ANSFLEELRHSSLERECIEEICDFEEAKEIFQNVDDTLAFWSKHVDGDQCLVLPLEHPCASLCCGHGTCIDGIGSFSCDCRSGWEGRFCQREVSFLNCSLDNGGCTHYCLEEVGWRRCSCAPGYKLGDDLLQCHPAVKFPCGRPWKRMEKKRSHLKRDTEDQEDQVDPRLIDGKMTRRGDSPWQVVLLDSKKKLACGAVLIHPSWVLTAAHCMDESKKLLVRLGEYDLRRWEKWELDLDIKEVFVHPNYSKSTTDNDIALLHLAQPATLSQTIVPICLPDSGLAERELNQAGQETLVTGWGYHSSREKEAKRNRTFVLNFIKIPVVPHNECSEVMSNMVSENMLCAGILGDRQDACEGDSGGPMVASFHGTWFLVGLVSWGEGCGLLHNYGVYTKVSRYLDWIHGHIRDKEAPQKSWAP
Ataxin3 (Homo sapiens (Human)), sequence (P54252 whole entry): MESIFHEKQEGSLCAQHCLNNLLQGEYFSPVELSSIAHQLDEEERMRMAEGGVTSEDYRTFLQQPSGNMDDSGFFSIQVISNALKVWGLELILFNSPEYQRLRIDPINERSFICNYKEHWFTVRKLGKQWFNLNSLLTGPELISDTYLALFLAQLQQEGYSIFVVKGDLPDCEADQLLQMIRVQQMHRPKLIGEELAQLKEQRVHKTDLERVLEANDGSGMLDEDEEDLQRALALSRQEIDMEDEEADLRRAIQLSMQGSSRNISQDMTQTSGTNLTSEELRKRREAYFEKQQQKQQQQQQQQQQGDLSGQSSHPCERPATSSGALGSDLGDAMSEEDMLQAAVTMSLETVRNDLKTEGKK
Caspase-8 (Homo sapiens (Human)), sequence (Q14790 217-479 limits assumed): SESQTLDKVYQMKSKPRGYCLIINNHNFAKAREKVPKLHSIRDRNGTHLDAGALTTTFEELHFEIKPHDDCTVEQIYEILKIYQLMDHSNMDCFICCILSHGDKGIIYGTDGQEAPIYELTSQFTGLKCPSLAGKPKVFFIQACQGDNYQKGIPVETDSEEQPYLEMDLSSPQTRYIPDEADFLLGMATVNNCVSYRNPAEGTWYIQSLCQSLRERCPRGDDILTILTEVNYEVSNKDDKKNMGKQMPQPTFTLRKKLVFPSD

Substance	Percentage inhibition (%) at 10 µM [1] [%]	Percentage inhibition (%) at 10 µM [2] [%]	Percentage inhibition (%) at 10 µM [3] [%]	Percentage inhibition (%) at 10 µM [4] [%]	Percentage inhibition (%) at 10 µM [5] [%]	Percentage inhibition (%) at 10 µM [6] [%]	Percentage inhibition (%) at 10 µM [7] [%]	Percentage inhibition (%) at 10 µM [8] [%]	Percentage inhibition (%) at 10 µM [9] [%]	Percentage inhibition (%) at 10 µM [10] [%]	Percentage inhibition (%) at 10 µM [11] [%]	Percentage inhibition (%) at 10 µM [12] [%]	Percentage inhibition (%) at 10 µM [13] [%]	Percentage inhibition (%) at 10 µM [14] [%]	Percentage inhibition (%) at 10 µM [15] [%]	Percentage inhibition (%) at 10 µM [16] [%]	Percentage inhibition (%) at 10 µM [17] [%]	Percentage inhibition (%) at 10 µM [18] [%]	Percentage inhibition (%) at 10 µM [19] [%]
Hex-[Cys(tMeBn(DOTA-AET))-Pro-Pro-Thr-Gln-Phe-Cys]-OH (peptide)	0	1	-1	7	-1	-3	-3	-25	-6	-23	-7	-5	0	2	2	-1	1	4	0
Hex-[Cys(tMeBn(DOTA-PP))-Pro-Pro-Thr-Gln-Phe-Cys]-Asp-NH2 (peptide)	-4	8	10	-5	-2	-1	0	-24	6	18	-3	0	15	2	5	7	6	4	14
